Results reported in patent US20070196374A1 (published 2007).

Tests used:
[1] = target: T1, VEGF (human, UniProt P15692-4 27-191, limits assumed); test: competition ELISA: Fab + biotinylated VEGF, then KDR-IgG plate
T1 construct: also called vascular endothelial growth factor; biotinylated VEGF
Description: Standards (6.9-440 ng/ml chimeric F(ab)) and two-fold serial of samples were incubated with 2 nM biotinylated VEGF for 1 h in tubes. The solutions from the tubes were then transferred to the ELISA plates and incubated for 1 h. […] Titration curves were fit with a four-parameter nonlinear regression curve-fitting program (KaleidaGraph, Synergy Software, Reading Pa.). […] Assays for full-length IgG were the same as for the F(ab)s except that the assay buffer contained 10% human serum.

[2] = target: T1, VEGF; test: BIAcore-2000 SPR, wt = Y0192
Description: The VEGF-binding affinities of Fab fragments were calculated from association and dissociation rate constants measured using a BIAcore-2000™ surface plasmon resonance system (BIAcore, Inc., Piscataway, N.J.). A biosensor chip was activated for covalent coupling of VEGF using N-ethyl-N′-(3-dimethylaminopropyl)-carbodiimide hydrochloride (EDC) and N-hydroxysuccinimide (NHS) according to the supplier's (BIAcore, Inc., Piscataway, N.J.) instructions. VEGF was buffered exchanged into 20 mM sodium acetate, pH 4.8 and diluted toapproximately 50 μg/mL. An aliquot (35 μL) was injected at a flow rate of 2 μL/min to achieve approximately 700-1400 response units (RU) of coupled protein. Finally, 1 M ethanolamine was injected as a blocking agent.
For kinetics measurements, two-fold serial dilutions of Fab were injected in PBS/TWEEN™ buffer (0.05% TWEEN 20™ in phosphate buffered saline) at 25° C. at a flow rate of 10 μL/min. […] Equilibrium dissociation constants, Kd's from surface plasmon resonance (SPR) measurements were calculated as koff/kon.

[3] = target: T2, VEGF121 (human, UniProt P15692 27-147); test: BIAcore SPR, VEGF121 on chip
T2 construct: mature; also called Purified VEGF121
T2 sequence (looked up): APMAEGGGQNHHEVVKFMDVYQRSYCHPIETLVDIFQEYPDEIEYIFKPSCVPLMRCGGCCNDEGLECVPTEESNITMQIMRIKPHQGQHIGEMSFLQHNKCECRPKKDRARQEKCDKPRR
Description: (§1) VEGF₁₂₁ was covalently immobilized on the biosensor chip via primary amino groups. Binding of humanized A4.6.1 Fab variants was measured by flowing solutions of Fab in PBS/0.05% TWEEN 20™ over the chip at a flow rate of 20 μL/min. Following each binding measurement, residual Fab was stripped from the immobilized ligand by washing with 5 μL of 50 mM aqueous HCl at 3 μL/min. Binding profiles were analyzed by nonlinear regression using a simple monovalent binding model (BIAevaluation software v2.0; Pharmacia).

[4] = target: T2, VEGF121; test: BIAcore SPR, VEGF121 on chip, Fab in flow
Description: as §1

B1: chimeric F(ab) (Fab, V domains shown)
VH: EIQLVQSGPELKQPGETVRISCKASGYTFTNYGMNWVKQAPGKGLKWMGWINTYTGEPTYAADFKRRFTFSLETSASTAYLQISNLKNDDTATYFCAKYPHYYGSSHWYFDVWGAGTTVTVSS
VL: DIQMTQTTSSLSASLGDRVIISCSASQDISNYLNWYQQKPDGTVKVLIYFTSSLHSGVPSRFSGSGSGTDYSLTISNLEPEDIATYYCQQYSTVPWTFGGGTKLEIKR
notes: Murine A4.6.1 VH fused to human CH1 at SerH113 and murine VL fused to human CL at LysL107; also called chim-F(ab); A4.6.1 chimera
[1]
  EC50: 49 mg/L

B2: Y0238-1 (Fab, V domains shown)
VH: EVQLVESGGGLVQPGGSLRLSCAASGYTFTNYGINWVRQAPGKGLEWVGWINTYTGEPTYAADFKRRFTFSLDTSKSTAYLQMNSLRAEDTAVYYCAKYPYYRGTSHWYFDVWGQGTL
VL: DIQLTQSPSSLSASVGDRVTITCRANEQLSNYLNWYQQKPGKAPKVLIYFTSSLHSGVPSRFSGSGSGTDFTLTISSLQPEDFATYYCQQYSTVPWTFGQGTKVEIKR
notes: Clone of library YC-81 on the pY0192 template; Soluble Fab
[2]
  Kd (wt)/Kd: 7.3 ratio

B3: Y0238-7 (Fab, V domains shown)
VH: EVQLVESGGGLVQPGGSLRLSCAASGYTFTNYGINWVRQAPGKGLEWVGWINTYTGEPTYAADFKRRFTFSLDTSKSTAYLQMNSLRAEDTAVYYCAKYPYYWGTSHWYFDVWGQGTL
VL: DIQLTQSPSSLSASVGDRVTITCRANEQLSNYLNWYQQKPGKAPKVLIYFTSSLHSGVPSRFSGSGSGTDFTLTISSLQPEDFATYYCQQYSTVPWTFGQGTKVEIKR
notes: as for B2
[2]
  Kd (wt)/Kd: ≥ 7.3 ratio

B4: Y0313-3 (Fab, V domains shown)
VH: EVQLVESGGGLVQPGGSLRLSCAASGYTFTNYGINWVRQAPGKGLEWVGWINTYTGEPTYAADFKRRFTFSLDTSKSTAYLQMNSLRAEDTAVYYCAKYPYYYGSSHWYFDVWGQGTL
VL: DIQLTQSPSSLSASVGDRVTITCRANEQLSNYLNWYQQKPGKAPKVLIYFTSSLHSGVPSRFSGSGSGTDFTLTISSLQPEDFATYYCQQYSTVPWTFGQGTKVEIKR
notes: Reversion mutant of Y0238-3 (VH3 T105S); soluble Fab
[2]
  Kd (wt)/Kd: 4.5 ratio

B5: Y0244-4 (Fab, V domains shown)
VH: EVQLVESGGGLVQPGGSLRLSCAASGYTFTNYGINWVRQAPGKGLEWVGWINTYTGEPTYAADFKRRFTFSIDKSKSTAYLQMNSLRAEDTAVYYCAKYPHYYGSSHWYFDVWGQGTL
VL: DIQLTQSPSSLSASVGDRVTITCRANEQLSNYLNWYQQKPGKAPKVLIYFTSSLHSGVPSRFSGSGSGTDFTLTISSLQPEDFATYYCQQYSTVPWTFGQGTKVEIKR
notes: Soluble Fab
[2]
  Kd (wt)/Kd: 0.9 ratio

B6: Y0243-1 (Fab, V domains shown)
VH: EVQLVESGGGLVQPGGSLRLSCAASGYDFTHYGMNWVRQAPGKGLEWVGWINTYTGEPTYAADFKRRFTFSLDTSKSTAYLQMNSLRAEDTAVYYCAKYPHYYGSSHWYFDVWGQGTL
VL: DIQLTQSPSSLSASVGDRVTITCRANEQLSNYLNWYQQKPGKAPKVLIYFTSSLHSGVPSRFSGSGSGTDFTLTISSLQPEDFATYYCQQYSTVPWTFGQGTKVEIKR
notes: Soluble Fab from E. coli 34B8
[2]
  Kd (wt)/Kd: 4.1 ratio

B7: Y0238-5 (Fab, V domains shown)
VH: EVQLVESGGGLVQPGGSLRLSCAASGYTFTNYGINWVRQAPGKGLEWVGWINTYTGEPTYAADFKRRFTFSLDTSKSTAYLQMNSLRAEDTAVYYCAKYPYYIAKSHWYFDVWGQGTL
VL: DIQLTQSPSSLSASVGDRVTITCRANEQLSNYLNWYQQKPGKAPKVLIYFTSSLHSGVPSRFSGSGSGTDFTLTISSLQPEDFATYYCQQYSTVPWTFGQGTKVEIKR
notes: as for B2
[2]
  Kd (wt)/Kd: 3.2 ratio

B8: Y0238-10 (Fab, V domains shown)
VH: EVQLVESGGGLVQPGGSLRLSCAASGYTFTNYGINWVRQAPGKGLEWVGWINTYTGEPTYAADFKRRFTFSLDTSKSTAYLQMNSLRAEDTAVYYCAKYPYYRNTSHWYFDVWGQGTL
VL: DIQLTQSPSSLSASVGDRVTITCRANEQLSNYLNWYQQKPGKAPKVLIYFTSSLHSGVPSRFSGSGSGTDFTLTISSLQPEDFATYYCQQYSTVPWTFGQGTKVEIKR
notes: as for B2
[2]
  Kd (wt)/Kd: 4.8 ratio

B9: Y0244-1 (Fab, V domains shown)
VH: EVQLVESGGGLVQPGGSLRLSCAASGYTFTNYGINWVRQAPGKGLEWVGWINTYTGEPTYAADFKRRFTFSVDVSKSTAYLQMNSLRAEDTAVYYCAKYPHYYGSSHWYFDVWGQGTL
VL: DIQLTQSPSSLSASVGDRVTITCRANEQLSNYLNWYQQKPGKAPKVLIYFTSSLHSGVPSRFSGSGSGTDFTLTISSLQPEDFATYYCQQYSTVPWTFGQGTKVEIKR
notes: Soluble Fab
[2]
  Kd (wt)/Kd: 3.6 ratio

B10: F(ab)-1 (Fab, V domains shown)
VH: EVQLVESGGGLVQPGGSLRLSCAASGYTFTNYGMNWVRQAPGKGLEWVGWINTYTGEPTYAADFKRRFTISRDNSKNTLYLQMNSLRAEDTAVYYCARYPHYYGSSHWYFDVWGQGTLVTVSS
VL: DIQMTQSPSSLSASVGDRVTITCSASQDISNYLNWYQQKPGKAPKLLIYFTSSLHSGVPSRFSGSGSGTDFTLTISSLQPEDFATYYCQQYSTVPWTFGQGTKVEIK
[1]
  fold reduction of binding affinity against chimeric F(ab): > 1000 fold

B11: F(ab)-8 (Fab, V domains shown)
VH: EVQLVESGGGLVQPGGSLRLSCAASGYTFTNYGMNWVRQAPGKGLEWVGWINTYTGEPTYAADFKRRFTFSLDTSKNTAYLQMNSLRAEDTAVYYCARYPHYYGSSHWYFDVWGQGTLVTVSS
VL: DIQMTQSPSSLSASVGDRVTITCSASQDISNYLNWYQQKPGKAPKVLIYFTSSLHSGVPSRFSGSGSGTDFTLTISSLQPEDFATYYCQQYSTVPWTFGQGTKVEIK
notes: F(ab)-5 with IleH69Phe and LeuH78Ala; Human CH1 and CL
[1]
  fold improvement of binding against F(ab)-5: 8 fold

B12: hu2.10 (Fab, V domains shown)
VH: EVQLVESGGGLVQPGGSLRLSCAASGYTFTNYGMNWIRQAPGKGLEWVGWINTYTGEPTYAADFKRRFTISLDTSASTVYLQMNSLRAEDTAVYYCAKYPHYYGSSHWYFDVWGQGTLVTVSS
VL: DIQMTQSPSSLSASVGDRVTITCSASQDISNYLNWYQQKPGKAPKLLIYFTSSLHSGVPSRFSGSGSGTDYTLTISSLQPEDFATYYCQQYSTVPWTFGQGTKVEIK
notes: Phage-selected consensus clone, soluble Fab with human constant domains; also called consensus clone hu2.10
[3]
  fold tighter KD against hu2.0: ≥ 125 fold
[4]
  KD(A4.6.1)/KD(mut) as headed (values run as KD(mut)/KD(A4.6.1)): 35 ratio

B13: F(ab)-5 (Fab, V domains shown)
VH: EVQLVESGGGLVQPGGSLRLSCAASGYTFTNYGMNWVRQAPGKGLEWVGWINTYTGEPTYAADFKRRFTISLDTSKNTLYLQMNSLRAEDTAVYYCARYPHYYGSSHWYFDVWGQGTLVTVSS
VL: DIQMTQSPSSLSASVGDRVTITCSASQDISNYLNWYQQKPGKAPKVLIYFTSSLHSGVPSRFSGSGSGTDFTLTISSLQPEDFATYYCQQYSTVPWTFGQGTKVEIK
notes: Human CH1 and CL
[1]
  fold increase of binding affinity against F(ab)-4: ~4 fold

B14: hu2.10V (Fab, V domains shown)
VH: EVQLVESGGGLVQPGGSLRLSCAASGYTFTNYGMNWIRQAPGKGLEWVGWINTYTGEPTYAADFKRRFTISLDTSASTVYLQMNSLRAEDTAVYYCAKYPHYYGSSHWYFDVWGQGTLVTVSS
VL: DIQMTQSPSSLSASVGDRVTITCSASQDISNYLNWYQQKPGKAPKVLIYFTSSLHSGVPSRFSGSGSGTDYTLTISSLQPEDFATYYCQQYSTVPWTFGQGTKVEIK
notes: hu2.10 with the Leu->Val change at VL 46; Fab
[3]
  fold improvement in KD against hu2.10: 6 fold
[4]
  KD(A4.6.1)/KD(mut) as headed (values run as KD(mut)/KD(A4.6.1)): 5.8 ratio

B15: F(ab)-9 (Fab, V domains shown)
VH: EVQLVESGGGLVQPGGSLRLSCAASGYTFTNYGMNWVRQAPGKGLEWVAWINTYTGEPTYAADFKRRFTFSLDTSKNTAYLQMNSLRAEDTAVYYCARYPHYYGSSHWYFDVWGQGTLVTVSS
VL: DIQMTQSPSSLSASVGDRVTITCSASQDISNYLNWYQQKPGKAPKVLIYFTSSLHSGVPSRFSGSGSGTDFTLTISSLQPEDFATYYCQQYSTVPWTFGQGTKVEIK
notes: F(ab)-8 with GlyH49Ala; Human CH1 and CL
[1]
  fold reduction of binding against F(ab)-8: 15 fold

B16: F(ab)-6 (Fab, V domains shown)
VH: EVQLVESGGGLVQPGGSLRLSCAASGYTFTNYGMNWVRQAPGKGLEWVGWINTYTGEPTYAADFKRRFTISLDTSKNTAYLQMNSLRAEDTAVYYCARYPHYYGSSHWYFDVWGQGTLVTVSS
VL: DIQMTQSPSSLSASVGDRVTITCSASQDISNYLNWYQQKPGKAPKVLIYFTSSLHSGVPSRFSGSGSGTDFTLTISSLQPEDFATYYCQQYSTVPWTFGQGTKVEIK
notes: F(ab)-5 with LeuH78Ala; Human CH1 and CL
[1]
  fold improvement of binding against F(ab)-5: 2 fold

B17: F(ab)-7 (Fab, V domains shown)
VH: EVQLVESGGGLVQPGGSLRLSCAASGYTFTNYGMNWVRQAPGKGLEWVGWINTYTGEPTYAADFKRRFTFSLDTSKNTLYLQMNSLRAEDTAVYYCARYPHYYGSSHWYFDVWGQGTLVTVSS
VL: DIQMTQSPSSLSASVGDRVTITCSASQDISNYLNWYQQKPGKAPKVLIYFTSSLHSGVPSRFSGSGSGTDFTLTISSLQPEDFATYYCQQYSTVPWTFGQGTKVEIK
notes: F(ab)-5 with IleH69Phe; Human CH1 and CL
[1]
  fold improvement of binding against F(ab)-5: 2 fold
